Experiment [1] concerns the target T1, CD123 (interleukin-3 receptor alpha, IL3RA) (human, UniProt P26951 19-378).
T1 chain: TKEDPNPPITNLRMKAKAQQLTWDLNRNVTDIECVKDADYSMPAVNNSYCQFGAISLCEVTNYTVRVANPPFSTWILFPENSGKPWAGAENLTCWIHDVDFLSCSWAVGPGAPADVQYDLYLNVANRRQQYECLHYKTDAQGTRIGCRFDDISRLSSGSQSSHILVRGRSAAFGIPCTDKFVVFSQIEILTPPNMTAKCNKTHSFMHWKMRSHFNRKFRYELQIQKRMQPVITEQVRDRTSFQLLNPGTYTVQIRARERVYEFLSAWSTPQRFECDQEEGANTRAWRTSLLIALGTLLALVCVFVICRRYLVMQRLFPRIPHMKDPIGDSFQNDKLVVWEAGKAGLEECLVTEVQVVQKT

Experiment [2] has as its target T1, CD123 (interleukin-3 receptor alpha, …).

B1: 7G3_H1L1_Fab_His (XENP 13761) (antibody, V domains shown)
VH: QVQLVQSGAEVKKPGASVKVSCKASGYTFTDYYMKWVRQAPGQSLEWMGDIIPSNGATFYNQKFQGRVTMTVDRSTSTAYMELSSLRSEDTAVYYCTRSHLLRASWFAYWGQGTLVTVSS
VL: DFVMTQSPDSLAVSLGERATINCKSSQSLLNSGNQKNYLTWYQQKPGQPPKLLIYWASTRESGVPDRFTGSGSGTDFTLTISSLQAEDVAVYYCQNDYSYPYTFGGGTKLEIKR
Take B1: the Ka in experiment [1] is 4.81e+08 M⁻¹. The molecule also yielded a Kd in experiment [2] of 2.08 nM.

The record behind these values is US20210147561A1 (published 2021).
